Test results taken from paper PMC5355995.

What was measured:
[1] = target: T1, Rex-His6 (Streptomyces avermitilis ATCC31267) (UniProt Q82E78); assay: EMSA; settings: EMSA: DIG Gel Shift Kit (Roche) binding buffer, 1 ug poly[d(I-C)] in 20 ul, 30 min at 25 C, 5% native PAGE in 0.5x TBE; footprinting: 400 ng DNA in 25 ul …
T1 sequence: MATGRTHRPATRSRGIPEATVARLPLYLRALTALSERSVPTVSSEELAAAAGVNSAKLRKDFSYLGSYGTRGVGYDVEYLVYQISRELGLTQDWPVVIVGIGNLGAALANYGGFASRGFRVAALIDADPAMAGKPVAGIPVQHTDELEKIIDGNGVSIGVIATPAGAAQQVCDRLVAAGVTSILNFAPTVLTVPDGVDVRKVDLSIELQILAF

[2] = target: T1, Rex-His6 (Streptomyces avermitilis ATCC31267); assay: DNase I footprinting; settings: EMSA: DIG Gel Shift Kit (Roche) binding buffer, 1 ug poly[d(I-C)] in 20 ul, 30 min at 25 C, 5% native PAGE in 0.5x TBE; footprinting: 400 ng DNA in 25 ul …

Sequence | binding [1] | binding [2]
CAGTTGCCACGGTGCTCCTGCGGGTAGCGCGGGGCTGCAGGCGGTCACACGTACCTAGACCGCCCCGTCGAAAGCAGGCTATGTCTTTGTGAACGCGTGCACAAAGATAGTGTCCGATTTGCCCGGCCAACGTGACCGGGGTCACGCGCCCCCGGCGTATGCGTATGGAACCGGCACACAGGCGCCTTCGTTCCTCACTCGACGGGGGCAAAACCGCACACACTCCTCAACGATCCACGCCCCCCGAGACCAAACCGCCCCCGATCCTAAGCGACTTTCCGGGCTGTTTGGACTACTC (double strand) [rex promoter probe] | binds | binds
GAGTCTCTACGTGGCGATCGAGACGGCCCGCAACACCGGCCTCCACAGAGAGCCAGAACCCCTCCTCAATCCAAAGGACCACGTCAGTCCGTCTGACGATCGGCCCTTCACTTGTTGAGGGATTCGTGAAAGCGTTCACATTCACAAGCAACCTGAATGTAATACCAAGGAGAGGTAGCAGCCATGGA (double strand) [wblE promoter EMSA probe] | binds | –
GCTTCATGATCCTTCGCCAGGTGGCAGAGATCACAAACTCCTTACTTACCCCCGTGTCGCAGATCACAGACCGCCGGGCATAGGATGCGCAGCAGTTGGGCTTGTGACCTGCTTCACATGTACGCGATCTTCGTCGGGACGCACGGGGTTCGTGGGACGTGTGAGGCGGGAGTGCTCGCCCGACGCAACCTCCCCCAAGGTCTCGGCTCCGCTCGACCAGGGGGACCCCCATGCAGTCAGTGCCGACTGAGAGGAGCGAGGAGCGTGAA (double strand) [nuoA1 promoter EMSA probe] | binds | –
